For one substance, Kd results are on record in US20240158489A1.

What all share (conditions): bispecific antibody
The target of test [1] is huANG2 (UniProt O15123). Briefly: -; FIG. 2A.
For the next test, the target named is huVEGF (UniProt P15692). Briefly: -; FIG. 2B.
The target of test [2] is huANG2 (UniProt O15123). Briefly: -; FIG. 2B.

Chain of huANG2 (O15123 19-496): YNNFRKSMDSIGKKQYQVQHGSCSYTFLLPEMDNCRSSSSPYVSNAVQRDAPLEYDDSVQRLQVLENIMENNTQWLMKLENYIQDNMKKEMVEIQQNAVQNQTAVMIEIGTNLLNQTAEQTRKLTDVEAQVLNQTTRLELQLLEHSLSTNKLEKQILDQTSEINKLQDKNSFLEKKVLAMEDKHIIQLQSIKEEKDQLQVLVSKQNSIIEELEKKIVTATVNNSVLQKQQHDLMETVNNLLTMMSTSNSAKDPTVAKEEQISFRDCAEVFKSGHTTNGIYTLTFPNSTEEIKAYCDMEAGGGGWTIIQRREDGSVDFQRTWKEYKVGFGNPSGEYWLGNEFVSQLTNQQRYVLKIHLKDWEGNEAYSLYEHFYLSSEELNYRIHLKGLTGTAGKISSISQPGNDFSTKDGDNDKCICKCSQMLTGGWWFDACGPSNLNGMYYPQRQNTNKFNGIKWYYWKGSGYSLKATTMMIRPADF
Chain of huVEGF (P15692 other isoform, or with tags, fused parts or gaps): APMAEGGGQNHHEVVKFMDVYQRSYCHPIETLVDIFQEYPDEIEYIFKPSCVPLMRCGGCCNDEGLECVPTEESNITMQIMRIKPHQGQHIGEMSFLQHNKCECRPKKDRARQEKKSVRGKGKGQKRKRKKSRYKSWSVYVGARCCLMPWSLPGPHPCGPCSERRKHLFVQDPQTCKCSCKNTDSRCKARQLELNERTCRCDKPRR

On to “anti-ANG-2×VEGF bispecific antibody ABP201”, for which the results for the equilibrium dissociation constant (Kd) in the test with huANG2 [1], with huVEGF and with huANG2 [2] were 32.1 nM, 1.37 nM and 32.1 nM, respectively.
